According to patent US20260152527A1 (SIGHTSTREAM BIOTHERAPEUTICS, published 2026):
Starred links: 1 amine or outer side, 2 acyl side, 3 side chain; linkers in the order of their positions; H or OH if unused. Positions of bridges follow the written chain, without caps; N, C: chain ends. Non-standard residues stand in square brackets, D forms with d. *: point of attachment. Benzoyl(3,5-(OH)2) = O=C(c1cc(O)cc(O)c1)*; Lys(N3) = [N-]=[N+]=NCCCC[C@H](N)C(=O)O; Phe(4-NH2) = Nc1ccc(C[C@H](N)C(=O)O)cc1; mXylylene = c1cc(C[*:1])cc(C[*:2])c1; NMeH = CN[C@@H](Cc1c[nH]cn1)C(=O)O; NMeR = CN[C@@H](CCCNC(=N)N)C(=O)O; NMeF = CN[C@@H](Cc1ccccc1)C(=O)O; dNMeF = CN[C@H](Cc1ccccc1)C(=O)O; R5 = C=CCCC[C@@](C)(N)C(=O)O; S5 = C=CCCC[C@](C)(N)C(=O)O; Nle = CCCC[C@H](N)C(=O)O; Pra = C#CC[C@H](N)C(=O)O

B1: KR-053 (peptide)
peptide: {Benzoyl(3,5-(OH)2)}-[Nle][Lys(N3)]H[dF]RW[Pra]K-NH2
modifications: triazole 2-7; not fully specified; printed as HyBA-Nle-[Lys(N3)-His-DPhe-Arg-Trp-Pra]-Lys-NH2
B2: KR-056 (peptide)
peptide: Ac-[Nle][Lys(N3)]H[dF]RW[Pra]N-NH2
modifications: triazole 2-7; not fully specified; printed as Ac-Nle-[Lys(N3)-His-DPhe-Arg-Trp-Pra]-Asn-NH2
B3: KR-036 (peptide)
peptide: Ac-[Nle]EHFRWGKC-NH2
modifications: not fully specified (bridges); printed as -Cyclo(-Ac-Nle-Glu-His-Phe-Arg-Trp-Gly-Lys-Cys)-NH2; also: cyclo(...) including Ac, ring type and places not given here
B4: KR-038 (peptide)
peptide: Ac-[Nle][R5]H[dF]RW[S5]-NH2
modifications: staple 2-7
SMILES: CCCC[C@H](NC(C)=O)C(=O)N[C@]1(C)CCCC=CCCC[C@@](C)(C(N)=O)NC(=O)[C@H](Cc2c[nH]c3ccccc23)NC(=O)[C@H](CCCNC(=N)N)NC(=O)[C@@H](Cc2ccccc2)NC(=O)[C@H](Cc2c[nH]cn2)NC1=O

Target: human recombinant MC5R (CHO-K1/Ga15 stable cell line, GenScript) (human, UniProt P33032 1-325)
Test: cell-based or functional assay

Chain of human recombinant MC5R (CHO-K1/Ga15 stable cell line, GenScript) (P33032 whole entry): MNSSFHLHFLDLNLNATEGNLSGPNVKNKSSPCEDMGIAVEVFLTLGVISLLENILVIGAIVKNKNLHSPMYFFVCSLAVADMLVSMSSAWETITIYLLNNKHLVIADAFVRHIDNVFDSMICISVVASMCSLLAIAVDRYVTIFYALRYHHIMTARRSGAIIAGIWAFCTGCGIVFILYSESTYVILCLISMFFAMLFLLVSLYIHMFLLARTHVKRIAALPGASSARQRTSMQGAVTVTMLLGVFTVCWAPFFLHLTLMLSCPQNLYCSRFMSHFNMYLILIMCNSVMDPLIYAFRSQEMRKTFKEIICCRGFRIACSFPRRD

| MC5R IC50 | Binder |
| --- | --- |
| > 10000 nM | Ac-EHFRWGKPV-NH2 [KR-004] |
| 79.8 nM | Ac-SYSMEHFRWGKP-NH2 [KR-005] |
| 120 nM | B1 |
| 4540 nM | Ac-SYSMEHF[NMeR]WGKPV-NH2 [KR-023] |
| 191 nM | Ac-[Nle][Lys(N3)]H[dF][NMeR]W[Pra]-NH2 (triazole 2-7) [KR-045] |
| 2300 nM | Ac-[Nle][Lys(N3)]H[dNMeF]RW[Pra]-NH2 (triazole 2-7) [KR-044] |
| 698 nM | Ac-SYSMEH[NMeF]RWGKPV-NH2 [KR-022] |
| 69.6 nM | B2 |
| 225 nM | Ac-SYSME[NMeH]FRWGKPV-NH2 [KR-021] |
| 86 nM | Ac-[Nle][Lys(N3)][NMeH][dF]RW[Pra]-NH2 (triazole 2-7) [KR-043] |
| 289 nM | B3 |
| 5090 nM | B4 |
| 489 nM | Ac-[Nle]CH[dF]RCW-NH2 (linker 2-6 via mXylylene) [KR-032] |
| 315 nM | Ac-MEHFRWGKPV-NH2 [KR-003] |
| 84.4 nM | Ac-YSMEHFRWGKPV-NH2 [KR-001] |
| 41.9 nM | Ac-[Nle][Lys(N3)][Phe(4-NH2)][dF]RW[Pra]-NH2 (triazole 2-7) [KR-047] |

Target: human recombinant MC3R (CHO-K1/Gα15 stable cell line, GenScript) (human, UniProt P41968 1-323)
Test: cell-based or functional assay

Chain of human recombinant MC3R (CHO-K1/Gα15 stable cell line, GenScript) (P41968 whole entry): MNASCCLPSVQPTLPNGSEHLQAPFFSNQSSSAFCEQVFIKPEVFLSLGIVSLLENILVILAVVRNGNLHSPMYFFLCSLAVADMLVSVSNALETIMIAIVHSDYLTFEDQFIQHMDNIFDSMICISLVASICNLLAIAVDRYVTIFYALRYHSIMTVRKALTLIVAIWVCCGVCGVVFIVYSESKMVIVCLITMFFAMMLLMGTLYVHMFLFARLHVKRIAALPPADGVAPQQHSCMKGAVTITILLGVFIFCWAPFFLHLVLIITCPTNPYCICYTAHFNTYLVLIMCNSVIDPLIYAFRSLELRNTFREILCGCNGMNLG

| MC3R IC50 | Binder |
| --- | --- |
| 937 nM | Ac-EHFRWGKPV-NH2 [KR-004] |
| 149 nM | Ac-SYSMEHFRWGKP-NH2 [KR-005] |
| 78.1 nM | B1 |
| 13400 nM | Ac-SYSMEHF[NMeR]WGKPV-NH2 [KR-023] |
| > 50000 nM | Ac-[Nle][Lys(N3)]H[dF][NMeR]W[Pra]-NH2 (triazole 2-7) [KR-045] |
| > 50000 nM | Ac-[Nle][Lys(N3)]H[dNMeF]RW[Pra]-NH2 (triazole 2-7) [KR-044] |
| > 50000 nM | Ac-SYSMEH[NMeF]RWGKPV-NH2 [KR-022] |
| 66.5 nM | B2 |
| 445 nM | Ac-SYSME[NMeH]FRWGKPV-NH2 [KR-021] |
| 61.6 nM | Ac-[Nle][Lys(N3)][NMeH][dF]RW[Pra]-NH2 (triazole 2-7) [KR-043] |
| 328 nM | B3 |
| 20000 nM | B4 |
| 1330 nM | Ac-[Nle]CH[dF]RCW-NH2 (linker 2-6 via mXylylene) [KR-032] |
| 289 nM | Ac-MEHFRWGKPV-NH2 [KR-003] |
| 199 nM | Ac-YSMEHFRWGKPV-NH2 [KR-001] |
| 80.9 nM | Ac-[Nle][Lys(N3)][Phe(4-NH2)][dF]RW[Pra]-NH2 (triazole 2-7) [KR-047] |

Target: human recombinant MC4R (CHO-K1/Gα15 stable cell line, GenScript) (human, UniProt P32245 1-332)
Test: cell-based or functional assay

Chain of human recombinant MC4R (CHO-K1/Gα15 stable cell line, GenScript) (P32245 whole entry): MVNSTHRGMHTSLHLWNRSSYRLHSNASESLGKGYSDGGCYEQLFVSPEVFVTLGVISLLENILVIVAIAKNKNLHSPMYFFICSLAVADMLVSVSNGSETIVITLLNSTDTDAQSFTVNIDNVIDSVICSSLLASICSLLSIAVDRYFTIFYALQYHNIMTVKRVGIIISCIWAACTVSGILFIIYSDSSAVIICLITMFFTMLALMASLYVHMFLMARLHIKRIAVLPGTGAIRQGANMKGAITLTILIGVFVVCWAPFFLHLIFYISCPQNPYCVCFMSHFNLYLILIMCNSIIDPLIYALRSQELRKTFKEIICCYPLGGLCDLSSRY

| MC4R IC50 | Binder |
| --- | --- |
| 34.2 nM | Ac-EHFRWGKPV-NH2 [KR-004] |
| 67 nM | Ac-SYSMEHFRWGKP-NH2 [KR-005] |
| 39.8 nM | B1 |
| 40.3 nM | Ac-[Nle][Lys(N3)]H[dF][NMeR]W[Pra]-NH2 (triazole 2-7) [KR-045] |
| 238 nM | Ac-[Nle][Lys(N3)]H[dNMeF]RW[Pra]-NH2 (triazole 2-7) [KR-044] |
| 23.1 nM | B2 |
| 31.4 nM | Ac-[Nle][Lys(N3)][NMeH][dF]RW[Pra]-NH2 (triazole 2-7) [KR-043] |
| 40.6 nM | B3 |
| 74 nM | B4 |
| 194 nM | Ac-[Nle]CH[dF]RCW-NH2 (linker 2-6 via mXylylene) [KR-032] |
| 40.5 nM | Ac-MEHFRWGKPV-NH2 [KR-003] |
| 87.6 nM | Ac-YSMEHFRWGKPV-NH2 [KR-001] |
| 17.9 nM | Ac-[Nle][Lys(N3)][Phe(4-NH2)][dF]RW[Pra]-NH2 (triazole 2-7) [KR-047] |

Target: human recombinant MC1R (CHO-K1 stable cell line, GenScript) (human, UniProt Q01726 1-317)
Test: cell-based or functional assay

Chain of human recombinant MC1R (CHO-K1 stable cell line, GenScript) (Q01726 whole entry): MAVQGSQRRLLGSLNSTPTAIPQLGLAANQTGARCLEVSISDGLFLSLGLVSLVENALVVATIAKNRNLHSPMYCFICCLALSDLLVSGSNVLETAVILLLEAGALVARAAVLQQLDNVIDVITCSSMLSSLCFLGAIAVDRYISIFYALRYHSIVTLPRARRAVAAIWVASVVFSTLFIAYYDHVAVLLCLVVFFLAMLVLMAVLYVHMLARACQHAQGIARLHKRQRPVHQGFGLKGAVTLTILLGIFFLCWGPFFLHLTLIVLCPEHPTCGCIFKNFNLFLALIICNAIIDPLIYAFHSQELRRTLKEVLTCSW

| MC1R IC50 | Binder |
| --- | --- |
| 1.15 nM | Ac-EHFRWGKPV-NH2 [KR-004] |
| 0.093 nM | Ac-SYSMEHFRWGKP-NH2 [KR-005] |
| 0.0089 nM | B1 |
| 21.2 nM | Ac-SYSMEHF[NMeR]WGKPV-NH2 [KR-023] |
| 0.48 nM | Ac-[Nle][Lys(N3)]H[dF][NMeR]W[Pra]-NH2 (triazole 2-7) [KR-045] |
| > 50 nM | Ac-[Nle][Lys(N3)]H[dNMeF]RW[Pra]-NH2 (triazole 2-7) [KR-044] |
| > 200 nM | Ac-SYSMEH[NMeF]RWGKPV-NH2 [KR-022] |
| 0.052 nM | B2 |
| 0.15 nM | Ac-[Nle][Lys(N3)][NMeH][dF]RW[Pra]-NH2 (triazole 2-7) [KR-043] |
| 0.88 nM | B3 |
| > 50 nM | B4 |
| 0.13 nM | Ac-MEHFRWGKPV-NH2 [KR-003] |
| 0.061 nM | Ac-YSMEHFRWGKPV-NH2 [KR-001] |
| > 50 nM | Ac-[Nle][Lys(N3)][Phe(4-NH2)][dF]RW[Pra]-NH2 (triazole 2-7) [KR-047] |
